± gives the standard deviation of the averaged measurements.
The sequences below were run on Saccharomyces cerevisiae (assay: protein stability index of tFT-peptide fusion (C-terminal peptide) (PSI (0-1 scale)); higher = more stable (slower turnover)). Settings: genetic background: wild type; temperature: 30 C.
Protocol: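 Multiplexed protein stability (MPS) profiling in S. cerevisiae. Random 12-aa peptides (tFT-X12 library) are fused to the C-terminus of a sfGFP-mCherry tandem fluorescent timer, after mCherry and a GGGS linker. Cells are FACS-sorted into 8 mCherry/sfGFP bins and deep-sequenced. The protein stability index (PSI) is the read-weighted bin average, scaled from 0 (unstable) to 1 (stable). Only peptides with >10 reads are reported; cells were grown at 30 °C in SC-His with glucose.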
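Also: PSI is a weighted mean of sequencing reads over stability bins, variants kept only with over 10 reads, mCherry proximal and sfGFP distal, peptide attached via GGGS linker.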

Sequence	protein stability index
GWCACFMGSGWG	0.703 ± 0.06
EIKGTQRKGGKR	0.726 ± 0.055
FPALPPPLPQPP	0.585 ± 0.031
RGGWGGYRGGVP	0.757 ± 0.021
RRADGASLNNSV	0.697 ± 0.028
ADLPALGSCGSY	0.631 ± 0.013
SGLQPADMVFFR	0.749 ± 0.056
RFRDSGRWLSAE	0.765 ± 0.063
IKKKKKVRYIRI	0.705 ± 0.06
MNLAGRRAVEEW	0.659 ± 0.024
RTFVSLLTSSSH	0.83 ± 0.17
KKKKQRKQEKKI	0.642 ± 0.008
HRCLSRTVSPPS	0.671 ± 0.04
PPPPPYPPCIPL	0.695 ± 0.048
RDSMVFEVRYSQ	0.698 ± 0.1
RLLPCATPHPDL	0.647 ± 0.015
TGTEKFTMQFKF	0.673 ± 0.042
KNEKEKKTKMRN	0.754 ± 0.14
PVASFLACSIAG	0.602 ± 0.032
RSPGSVSVGGVV	0.615 ± 0.021
CGALKGKKPYGV	0.715 ± 0.057
LGTGRGAEGVIG	0.791 ± 0.071
GGVVGWCAGKVV	0.642 ± 0.071
SRPRPPHTLLRP	0.688 ± 0.065
LSDIDLLGLPIL	0.66 ± 0.085

Sequence	protein stability index
VLGIVEKRGILR	0.773 ± 0.11
KGGCPTASARVL	0.5735 ± 0.0011
TVVSFMFCPSLT	0.667 ± 0.061
QKKKKEKQKKKG	0.692 ± 0.023
MTSCAVDHPERR	0.703 ± 0.0047
YVKHTVKVSGHK	0.665 ± 0.0098
QIEEDINLVTCN	0.739 ± 0.049
WGTGGRRGVGHV	0.709 ± 0.066
SPLPHPSPPPSP	0.662 ± 0.016
PLLDEQCLGIDS	0.658 ± 0.015
WPGYLTNVLPVI	0.65 ± 0.029
GGRGGGGEMGGR	0.651 ± 0.04
ITTNTESSRQSY	0.702 ± 0.014
GCGAGEVWGVGG	0.674 ± 0.014
RLMKQKKMKRRK	0.724 ± 0.025
RMEPPLCIISPK	0.6605 ± 0.0065
YMSHPHGPLCLS	0.75 ± 0.21
VWSPGGGAFVGG	0.815 ± 0.047
FVVRGVFVSGFW	0.582 ± 0.019
RFCRPVCRFNLG	0.647 ± 0.063
ESGTVINKNSNK	0.6661 ± 0.0054
GGGAADGGGGRG	0.646 ± 0.059
CSRPSLPIYYCS	0.581 ± 0.028
IILKEDKSIKKR	0.6595 ± 0.0032
VASFLRFRLPPQ	0.71 ± 0.083

Sequence	protein stability index
CVVAISGLSHFL	0.623 ± 0.015
KDINNQKKETQR	0.683 ± 0.047
SPPPLPPSPLSS	0.701 ± 0.046
IVPFLLFYSPPA	0.719 ± 0.055
GRENKWGKGRRE	0.67 ± 0.035
VMCECALLVQSR	0.563 ± 0.028
STHTASAIQWST	0.661 ± 0.025
GWVQRGAEARRE	0.705 ± 0.047
HVLSQSLSALPC	0.681 ± 0.044
EGVGRGCSGGCW	0.713 ± 0.055
PPRLLATVTRGT	0.654 ± 0.025
DQMVILSHYSVR	0.683 ± 0.038
TRCKRNETCTSG	0.669 ± 0.046
VQAWYWGFFCST	0.785 ± 0.036
LPCPRPVPPSPA	0.626 ± 0.018
KSVVRLPHLPLE	0.695 ± 0.02
QEEKLSKNSKKK	0.691 ± 0.036
RPHPQRANAPGH	0.69373 ± 9.2e-06
MPARGLAWLPVS	0.654 ± 0.064
GGSIGTELAAVI	0.682 ± 0.054
PAPPPQSPAPYR	0.704 ± 0.049
PAGVPPAVCRDL	0.609 ± 0.0092
PTPLPHTRATPT	0.778 ± 0.015
SEVFAVGITGVI	0.6788 ± 0.0039
KGKGREEEDISK	0.674 ± 0.015

Sequence	protein stability index
LGIRFPLSNELI	0.867 ± 0.15
EGGEWGSFGSAV	0.704 ± 0.0094
LDGLFWHRPCFK	0.734 ± 0.061
GGGVWWGGWGHW	0.73 ± 0.061
SCYHGDYCTVAW	0.7062 ± 0.0017
FGVHCSSPTSGG	0.6684 ± 0.0013
VLFHWAGFFLFL	0.525 ± 0.029
PPHSHRSRHPPP	0.688 ± 0.061
SAELGHTNLCRS	0.6781 ± 0.0041
WGGGPGLRVVGG	0.731 ± 0.026
SSPRPPPPRFSP	0.687 ± 0.039
PPPPALLPPPPA	0.781 ± 0.27
GVGGGEAGVIGR	0.769 ± 0.041
GWDRDQKPENKE	0.738 ± 0.045
LFCLCYDVCVPS	0.662 ± 0.035
GWSSTLTFLGGA	0.701 ± 0.0078
CLLSRGLTVSYS	0.626 ± 0.012
PHAPSHLPSSLP	0.712 ± 0.025
LSSCVRVSFLFF	0.588 ± 0.028
GAHRRDTYTVIG	0.682 ± 0.011
PPPCSFTRKRQR	0.664 ± 0.014
APSSPRSSTPRP	0.763 ± 0.085
ALFKESMLSTCA	0.564 ± 0.022
ESVPPILGQDPL	0.773 ± 0.035
RTSPRMAPLRTH	0.713 ± 0.067

Sequence	protein stability index
VCVSCTPALLFL	0.608 ± 0.056
TKRRRKRRGAKK	0.672 ± 0.014
VGCSGVYIWGNL	0.707 ± 0.015
LRPSPGYRLGIH	0.791 ± 0.1
FVRWGWAVMLGG	0.571 ± 0.013
PRIIPRLARPQS	0.69 ± 0.014
GISASLRRMTRR	0.623 ± 0.017
GCVGGGDWRFNV	0.566 ± 0.027
FTLLLFVPSLGS	0.618 ± 0.0082
RIKKKKNKARDI	0.734 ± 0.035
LSVQVLSLRPRA	0.688 ± 0.036
GCSNESVGVISG	0.644 ± 0.024
WFAGRDRHRAND	0.745 ± 0.1
RWLGWRAGGAAG	0.662 ± 0.071
PPPPPIPRPPHA	0.73 ± 0.03
VGSFVGSREGVW	0.613 ± 0.029
VWGGNGRAASQL	0.742 ± 0.019
WSPVPVPPPLPT	0.722 ± 0.083
RKKHKYNKKNGQ	0.666 ± 0.07
PRGWAGGQITPR	0.686 ± 0.03
SPPLRSRSGSFL	0.699 ± 0.062
IIAGGGPARGCG	0.635 ± 0.0071
PTRGLTARPFLW	0.62 ± 0.042
EPNEKEKNKEVK	0.704 ± 0.0079
VCVCSVPNLGLW	0.675 ± 0.029

Sequence	protein stability index
RACLVWKSLGWV	0.605 ± 0.084
SAGVTGREVFVG	0.631 ± 0.015
CGFFSGLLYFSL	0.586 ± 0.028
WVGLGMSLRRAA	0.564 ± 0.062
GRGGEVALWRGV	0.6479 ± 0.0014
GRDSECCSGGGG	0.683 ± 0.018
RFRTVFFPLPRC	0.716 ± 0.062
SPPLPPLPLLQL	0.696 ± 0.021
FPDPTPNLRPPP	0.636 ± 0.034
GCCAPWTFDDDL	0.7117 ± 0.0065
GVAEFDGWFCLG	0.7329 ± 0.0022
KFKGIKEINNGN	0.633 ± 0.074
VPIRSGYLRPNF	0.573 ± 0.038
PPPPLLPSPFPP	0.653 ± 0.031
VARPEWWSGGGS	0.727 ± 0.03
RGGGQAKAPAGD	0.6566 ± 0.0011
HGTVQNIVARYV	0.611 ± 0.026
MRVKRVEVVRGG	0.6903 ± 0.0061
PPRRPPPPPPLP	0.7168 ± 0.0045
PKKDNIQLQKPA	0.694 ± 0.028
SPPSRASFPPPS	0.682 ± 0.022
KAHSFAYVINCL	0.589 ± 0.045
SLHSPPHPPPHA	0.673 ± 0.011
GEISLSGRYRAV	0.691 ± 0.032
LRCPLPFFSAFF	0.704 ± 0.11

Sequence	protein stability index
DIQINENIYKNK	0.687 ± 0.048
MSKSLQTSSHKT	0.663 ± 0.018
MTMGNWLRLKRR	0.62 ± 0.024
VVFISGVYCSRL	0.688 ± 0.1
FCFLAFLKTPKS	0.58 ± 0.038
MILNLLLFRSKK	0.67 ± 0.05
LSASAWCSSLTR	0.714 ± 0.047
KRSIVSTDKDRY	0.603 ± 0.045
KGRSKHIKGKRR	0.743 ± 0.033
GEVSSIVHIGPK	0.684 ± 0.03
RARTKGRMRTCR	0.749 ± 0.15
AGSALSSAYTLM	0.703 ± 0.13
SVTSKDEYDLEE	0.694 ± 0.043
VVGCCVTKGGGA	0.667 ± 0.048
VCSYISGRKSVL	0.568 ± 0.0048
LCLDHAKQNPGK	0.6641 ± 0.0051
RLGAELGQLRCC	0.66 ± 0.04
RVPPPTSPPSPP	0.694 ± 0.012
LRGDGGLFGDSG	0.655 ± 0.035
PFSLPAFLLPTL	0.712 ± 0.053
MKRRSEGDLLQP	0.64 ± 0.047
RARASLIPNAGT	0.705 ± 0.037
LTLLFLHPFPST	0.753 ± 0.1
KSRTRNNVSRVG	0.6703 ± 0.0062
LQLKNTNKNKTT	0.666 ± 0.047

Sequence	protein stability index
FLPPSRFSPLRL	0.708 ± 0.11
AQTEADGRAHDP	0.6344 ± 0.0058
PLHNPPTRRTTP	0.67 ± 0.056
PSPRPSPPLPSP	0.647 ± 0.076
WGRRCRFIFRGM	0.654 ± 0.074
PPLPLPPPLLPP	0.659 ± 0.059
IFCCFFPRFPVF	0.642 ± 0.013
VGTSVTSSFRGK	0.591 ± 0.078
PSFLLPPLPPPT	0.718 ± 0.0086
RRLANMIFFLGG	0.69 ± 0.042
KSKKNKTEKTKE	0.665 ± 0.027
SGSSLCSVGWLV	0.718 ± 0.044
GQSVRELDSIKV	0.652 ± 0.17
GVAWGCVSRVFG	0.68 ± 0.045
SGIEAGAELGVG	0.567 ± 0.011
HEVRGVFWNPRF	0.712 ± 0.053
KKESNFVKKKEI	0.741 ± 0.024
GWSRCVFGGYRL	0.7 ± 0.022
SFTLPPPLLSRT	0.747 ± 0.008
PPMALPELPLFP	0.738 ± 0.071
PAGSRGRHSRER	0.712 ± 0.061

Reference: the supplement of paper PMC10724198
